According to patent US20160046703A1 (ORGENTEC DIAGNOSTIKA, published 2016):

Biological target: bovine serum albumin (BSA) (bovine, UniProt P02769 25-607)
Assay: ELISA on BSA-coated microtitre plates, detection with peroxidase-labelled RGS-6xHis antibody
Description: For the ELISA detection of the specific β2-glycoprotein-binding activity of the scFv-CAD reaction module, serial dilutions of scFv-CAD in the indicated concentration were applied to microtitre plates coated with β2-glycoprotein and, for control purposes, with bovine serum albumin (BSA). The binding was determined using a peroxidase-labelled RGS-6×-His antibody (Qiagen, Hilden) and a tetramethylbenzidine (TMB) colour reaction by measurement of the O.D. 450.
Characterisation of the binding reaction of the CAD-IgG-CH3-Knob02 modubody to the target β2-glycoprotein. […] The binding was determined using a peroxidase-labelled RGS-6×-His antibody (Qiagen, Hilden) and a tetramethylbenzidine (TMB) colour reaction by measurement of the O.D. 450 nm.
In order to determine whether the CAD-IgG-CH3-Knob02 modubody has retained the β2-glycoprotein-binding activity of the scFv-CAD, purified CAD-IgG-CH3-Knob02 preparations were tested by immunoassays. […] The microtitre plates were washed and the binding of the CAD-IgG-CH3-Knob02 modubody was determined using a peroxidase-labelled RGS-6×-His antibody (Qiagen, Hilden) and a tetramethylbenzidine (TMB) colour reaction by measurement of the O.D. 450 nm. […] Specific binding to β2-glycoprotein was detected even at a concentration of the CAD-IgG-CH3-Knob02 modubody of 19 ng/ml.

Sequence of bovine serum albumin (BSA) (P02769 25-607 limits assumed): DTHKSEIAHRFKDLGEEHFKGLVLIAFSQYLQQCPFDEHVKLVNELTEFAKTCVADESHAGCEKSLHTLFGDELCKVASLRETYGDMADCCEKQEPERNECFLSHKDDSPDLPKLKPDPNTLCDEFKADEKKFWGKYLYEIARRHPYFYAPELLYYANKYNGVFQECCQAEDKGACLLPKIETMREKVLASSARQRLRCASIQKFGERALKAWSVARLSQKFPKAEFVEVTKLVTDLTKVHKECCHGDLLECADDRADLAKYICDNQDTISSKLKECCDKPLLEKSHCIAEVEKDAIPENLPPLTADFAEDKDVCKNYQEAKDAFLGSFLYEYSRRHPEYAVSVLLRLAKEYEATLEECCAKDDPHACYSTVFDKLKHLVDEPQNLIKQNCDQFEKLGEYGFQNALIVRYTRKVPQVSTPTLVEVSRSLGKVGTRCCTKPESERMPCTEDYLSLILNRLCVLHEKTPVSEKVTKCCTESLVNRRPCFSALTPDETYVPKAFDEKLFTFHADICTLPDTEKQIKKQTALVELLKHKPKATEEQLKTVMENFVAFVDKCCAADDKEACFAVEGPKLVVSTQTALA

| binding result | Binder |
| --- | --- |
| no binding (tested: 0.019-10 µg/ml) | scFv-CAD β2-glycoprotein-binding module (artificial protein sequence scFv-RP-CAD-P) (scFv, Expressed in E. coli from pQE-80L as a 30 kDa protein; also called CAD-scFv; scFV-CAD reaction module; not shown: RGS-6xHis tag from expression vector pQE-80L (detected with anti-RGS-6xHis antib)) scFv: LVPRGSDVLMTQTPLSLPVSLGDQASISCRSSQSIVHSNGNTYLEWYLQKPGQSPKLLIYKVSNRFSGVPDRFSGSGSGTDFTLKISRVEAEDLGVYYCFQGSHVPYTFGGGTKLEIKRTGSGSGGGGSGGGGSGGGGSSGGGGSGGGGSGGGGSGSGEVQLQQSGPELVKPGASVKISCKASGYTFTDYYMHWVRQRPGQGLEWIGEIYPGSGNTSYNEKFRGKATLTADKSSSTAYMQLSSLTSEDSAVYFCARGTLDYTMDYWGQGTSVTVSS |
| no binding (tested: 0.019-10 µg/ml) | single-chain CAD-IgG-CH3-Knob02 modubody (designed binder, Domain order is VL-linker-VH-linker-IgG-CH3-Knob02, 44 kDa, made in E. coli; also called CAD-IgG-CH3-Knob32 (as misprinted once); not shown: RGS-6xHis tag from vector pQE-80L) LVPRGSDVLMTQTPLSLPVSLGDQASISCRSSQSIVHSNGNTYLEWYLQKPGQSPKLLIYKVSNRFSGVPDRFSGSGSGTDFTLKISRVEAEDLGVYYCFQGSHVPYTFGGGTKLEIKRTGSGSGGGGSGGGGSGGGGSSGGGGSGGGGSGGGGSGSGEVQLQQSGPELVKPGASVKISCKASGYTFTDYYMHWVRQRPGQGLEWIGEIYPGSGNTSYNEKFRGKATLTADKSSSTAYMQLSSLTSEDSAVYFCARGTLDYTMDYWGQGTSVTVSSGSGGGGSGGGGSGGGGSSGGGGSGGGGSGGGGSGSGEPQVYTLPPSREEMTKNQVSLYCLVKGFYPSDIAVEWESNGQPENNYKTYPPVLDSDGSFYLYSKLTVDKSRWQQGNVFSCSVMHEALHNHYTQKSLSL |
